In publication PMC8092709 (Journal of Virology, 2021):

B1: human aminopeptidase N (hAPN), residues 66 to 967 (receptor)
chain: DQSKAWNRYRLPNTLKPDSYRVTLRPYLTPNDRGLYVFKGSSTVRFTCKEATDVIIIHSKKLNYTLSQGHRVVLRGVGGSQPPDIDKTELVEPTEYLVVHLKGSLVKDSQYEMDSEFEGELADDLAGFYRSEYMEGNVRKVVATTQMQAADARKSFPCFDEPAMKAEFNITLIHPKDLTALSNMLPKGPSTPLPEDPNWNVTEFHTTPKMSTYLLAFIVSEFDYVEKQASNGVLIRIWARPSAIAAGHGDYALNVTGPILNFFAGHYDTPYPLPKSDQIGLPDFNAGAMENWGLVTYRENSLLFDPLSSSSSNKERVVTVIAHELAHQWFGNLVTIEWWNDLWLNEGFASYVEYLGADYAEPTWNLKDLMVLNDVYRVMAVDALASSHPLSTPASEINTPAQISELFDAISYSKGASVLRMLSSFLSEDVFKQGLASYLHTFAYQNTIYLNLWDHLQEAVNNRSIQLPTTVRDIMNRWTLQMGFPVITVDTSTGTLSQEHFLLDPDSNVTRPSEFNYVWIVPITSIRDGRQQQDYWLIDVRAQNDLFSTSGNEWVLLNLNVTGYYRVNYDEENWRKIQTQLQRDHSAIPVINRAQIINDAFNLASAHKVPVTLALNNTLFLIEERQYMPWEAALSSLSYFKLMFDRSEVYGPMKNYLKKQVTPLFIHFRNNTNNWREIPENLMDQYSEVNAISTACSNGVPECEEMVSGLFKQWMENPNNNPIHPNLRSTVYCNAIAQGGEEEWDFAWEQFRNATLVNEADKLRAALACSKELWILNRYLSYTLNPDLIRKQDATSTIISITNNVIGQGLVWDFVQSNWKKLFNDYGGGSFSFSNLIQAVTRRFSTEYELQQLEQFKKDNEETGFGSGTRALEQALEKTKANIKWVKENKEVVLQWFTENSK

Assays:
[1] = target: human aminopeptidase N (hAPN), residues 66 to 967 (human) (UniProt P15144); assay: SPR
[2] = target: T1, HCoV-229E S glycoprotein ectodomain trimer (S-trimer) (HCoV-229E, UniProt P15423 16-1116); assay: SPR
T1 sequence: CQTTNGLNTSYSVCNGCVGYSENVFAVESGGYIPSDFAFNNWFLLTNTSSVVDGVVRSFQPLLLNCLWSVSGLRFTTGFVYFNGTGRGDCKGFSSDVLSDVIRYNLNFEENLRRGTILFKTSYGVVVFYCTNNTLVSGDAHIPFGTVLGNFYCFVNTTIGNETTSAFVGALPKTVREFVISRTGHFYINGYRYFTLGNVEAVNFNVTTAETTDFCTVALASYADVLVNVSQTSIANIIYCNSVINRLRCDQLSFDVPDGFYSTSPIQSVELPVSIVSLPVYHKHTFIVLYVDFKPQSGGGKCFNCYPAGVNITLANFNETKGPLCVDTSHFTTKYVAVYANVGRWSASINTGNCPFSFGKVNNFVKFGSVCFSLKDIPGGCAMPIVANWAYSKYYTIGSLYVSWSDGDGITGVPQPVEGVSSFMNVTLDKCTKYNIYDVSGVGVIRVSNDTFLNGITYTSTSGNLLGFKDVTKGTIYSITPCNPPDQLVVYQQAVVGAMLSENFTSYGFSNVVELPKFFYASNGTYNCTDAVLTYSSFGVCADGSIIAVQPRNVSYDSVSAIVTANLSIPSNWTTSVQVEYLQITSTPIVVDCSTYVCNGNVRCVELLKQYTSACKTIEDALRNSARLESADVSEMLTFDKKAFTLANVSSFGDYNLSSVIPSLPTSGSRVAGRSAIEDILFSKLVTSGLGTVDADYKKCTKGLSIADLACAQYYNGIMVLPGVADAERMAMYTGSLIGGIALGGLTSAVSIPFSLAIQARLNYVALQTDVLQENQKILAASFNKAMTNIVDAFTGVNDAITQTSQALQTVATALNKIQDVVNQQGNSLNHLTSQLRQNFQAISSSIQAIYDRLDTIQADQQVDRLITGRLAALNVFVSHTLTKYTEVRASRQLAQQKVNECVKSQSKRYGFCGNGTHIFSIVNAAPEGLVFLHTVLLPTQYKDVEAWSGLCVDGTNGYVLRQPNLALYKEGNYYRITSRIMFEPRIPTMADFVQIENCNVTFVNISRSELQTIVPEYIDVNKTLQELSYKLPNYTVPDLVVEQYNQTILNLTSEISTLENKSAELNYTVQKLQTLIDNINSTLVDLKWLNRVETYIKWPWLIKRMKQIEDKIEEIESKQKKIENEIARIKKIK

Molecule | Kd [1] [nM] | koff [1] [s⁻¹] | kon [1] [M⁻¹ s⁻¹] | Kd [2] [nM] | koff [2] [s⁻¹] | kon [2] [M⁻¹ s⁻¹]
HCoV-229E NTD-deficient S-trimer (S-trimer/ΔNTD) (from UniProt P15423 16-1116) (domain or fragment) | 2.12 | 4.1e-05 | 19400 |  |  | 
B1 |  |  |  | 3.29 | 0.000121 | 36700
